Data published in US20090028851A1 (MAXPLANCK GESELLSCHAFT ZUR F RDERUNG DER WISSENSCH, published 2009).
One block for each binder: values may come before it. Where no end group is shown, it is not given here.

What was measured:
[1] = biological target: T1, SPOT peptide 22, FNGSGSGKWEGGP; experiment: SPOT peptide membrane, ECL
T1 construct: also called spot 22
T1 peptide: FNGSGSGKWEGGP

[2] = biological target: T2, SPOT peptide 21, YQFNGSGSGKWEG; experiment: SPOT peptide membrane, ECL
T2 construct: also called spot 21
T2 peptide: YQFNGSGSGKWEG

[3] = biological target: T3, SPOT peptide 23, GSGSGKWEGGPSK; experiment: SPOT peptide membrane, ECL
T3 construct: also called spot 23
T3 peptide: GSGSGKWEGGPSK

[4] = biological target: T4, SPOT peptide 24, GSGKWEGGPSKNS; experiment: SPOT peptide membrane, ECL
T4 construct: also called spot 24
T4 peptide: GSGKWEGGPSKNS

[5] = biological target: Eag1 ion channel expressed in cells (Eag1 overexpressing CHO K1 cells; Eag1-expressing oocytes; transfected HEK293 cells) (UniProt O95259); experiment: cell-based or functional assay
[6] = biological target: T5, rat Eag1 (rat brain sections, hippocampus and cerebellum) (rat, UniProt Q63472 1-962); experiment: immunohistochemistry on rat brain sections (hippocampus, cerebellum)
T5 construct: whole, on cells; Native protein in fixed tissue sections (immunohistochemistry)
T5 sequence (looked up): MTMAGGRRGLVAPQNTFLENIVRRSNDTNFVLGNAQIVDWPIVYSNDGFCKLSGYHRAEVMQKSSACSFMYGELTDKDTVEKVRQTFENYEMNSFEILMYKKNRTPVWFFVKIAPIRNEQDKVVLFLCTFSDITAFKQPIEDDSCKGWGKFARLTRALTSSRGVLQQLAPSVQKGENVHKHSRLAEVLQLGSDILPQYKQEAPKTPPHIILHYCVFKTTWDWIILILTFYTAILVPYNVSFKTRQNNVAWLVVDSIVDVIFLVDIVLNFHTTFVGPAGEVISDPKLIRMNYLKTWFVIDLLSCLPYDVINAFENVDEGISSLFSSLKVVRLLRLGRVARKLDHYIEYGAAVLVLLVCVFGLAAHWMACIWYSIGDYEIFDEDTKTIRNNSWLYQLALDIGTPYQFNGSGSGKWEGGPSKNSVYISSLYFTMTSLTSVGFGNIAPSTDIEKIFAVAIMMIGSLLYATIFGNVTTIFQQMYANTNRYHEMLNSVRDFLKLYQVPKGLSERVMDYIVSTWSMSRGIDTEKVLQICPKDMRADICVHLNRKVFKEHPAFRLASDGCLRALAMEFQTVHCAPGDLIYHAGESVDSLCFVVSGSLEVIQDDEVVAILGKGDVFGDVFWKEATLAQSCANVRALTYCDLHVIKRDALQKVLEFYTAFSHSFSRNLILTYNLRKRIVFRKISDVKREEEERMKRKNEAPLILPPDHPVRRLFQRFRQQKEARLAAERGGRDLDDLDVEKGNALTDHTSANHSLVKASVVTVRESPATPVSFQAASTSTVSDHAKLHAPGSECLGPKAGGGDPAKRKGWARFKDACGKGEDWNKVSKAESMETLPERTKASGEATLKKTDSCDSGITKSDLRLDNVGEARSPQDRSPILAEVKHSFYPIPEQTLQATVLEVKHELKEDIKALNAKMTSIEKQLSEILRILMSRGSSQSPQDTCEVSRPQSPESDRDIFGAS

[7] = biological target: T6, SPOT peptide 7, DYEIFDEDTKTIR (also: covalently bound to a cellulose SPOT membrane); experiment: SPOT peptide membrane, ECL
T6 construct: also called spot 7
T6 peptide: DYEIFDEDTKTIR

[8] = biological target: T7, SPOT peptide 6, MGDYEIFDEDTKT (also: covalently bound to a cellulose SPOT membrane); experiment: SPOT peptide membrane, ECL
T7 construct: also called spot 6
T7 peptide: MGDYEIFDEDTKT

[9] = biological target: T8, SPOT peptide 8, EIFDEDTKTIRNN; experiment: SPOT peptide membrane, ECL
T8 construct: also called spot 8
T8 peptide: EIFDEDTKTIRNN

[10] = biological target: T9, SPOT peptide 5, SGMGDYEIFDEDT (also: covalently bound to a cellulose SPOT membrane); experiment: SPOT peptide membrane, ECL
T9 construct: also called spot 5
T9 peptide: SGMGDYEIFDEDT

[11] = biological target: T10, SPOT peptide 4, HSSGMGDYEIFDE (also: covalently bound to cellulose SPOT membrane); experiment: SPOT peptide membrane, ECL
T10 construct: also called spot 4
T10 peptide: HSSGMGDYEIFDE

[12] = biological target: T11, SPOT peptide 3, HHHSSGMGDYEIF (also: covalently bound to cellulose SPOT membrane); experiment: SPOT peptide membrane, ECL
T11 construct: holds residues of the immunogen's His tag; also called spot 3
T11 peptide: HHHSSGMGDYEIF

binding result [1]: binds
binding result [2]: binds
binding result [3]: binds
binding result [4]: binds
current inhibition, whole cell patch clamp on transfected HEK293 cells, 300 nM antibody [5]: 35%
B1: mouse monoclonal anti-Eag1 antibody ImAb3 (antibody, mouse IgG2b, kappa, V domains shown)
VH: EVKLVESGGGLVQPGGSLRLSCATSGFTFTDYYMSWVRQPPGKALEWLGFIRNKATGYTTEYSASVKGRFTISRDNSQSILYLQMNTLRAEDSATYYCARDFGSRWYFDVWGAGTTVTVSS
VL: DIVMSQSPSSLAVSAGEKVTMSCKSSQSLLNSRTRKNYLAWYQQKPGQSPKLLIYWASTRESGVPDRFTGSGSGTDFTLTISSVQAEDLAVYYCKQSYDLRTFGGGTKLEIKR
notes: Murine IgG2b / kappa

binding result [6]: binds
binding result [7]: binds
binding result [8]: binds
binding result [9]: binds
binding result [10]: binds
binding result [11]: binds
binding result [12]: binds
B2: mouse monoclonal anti-Eag1 antibody ImAb4 (antibody, mouse IgG2b, kappa, V domains shown)
VH: DVQLQESGPGLVKPSQSLSLTCTVTGYSITSDYAWNWIRQFPGNKLEWMGYISYSGSTIYNPSLKSRISITRDTSKNQFFLQLNSVTTEDTATYYCARFGNYGNTLNYWGQGTSVTVSS
VL: DVVMTQTPLSLPVSLGDQASISCRSSQSLVHSNGNTYLHWYLQKPGQSPKLLIYKVSNRFSGVPDRFSGSGSGTDFTLKISRVEAEDLGVYFCSQSTHVPPTFGGGTKLEIKR
notes: Murine IgG2b / kappa
